Reference: patent US7265201 (Takeda / Millennium, dated 2007)
Values belong to the binder of their own block, whether it stands above or below them.

Legend:
[1] = target: T1, synthetic human eotaxin (predicted mature protein consisting of amino acids 24-97) (human, UniProt P51671 24-97); experiment: Scatchard analysis of competition of unlabeled eotaxin with 125I-eotaxin on purified human eosinophils
T1 construct: also called clone #25 polypeptide; synthetic mature eotaxin
Protocol: Binding of RANTES, MIP-1α and human eotaxin was carried out in binding buffer consisting of 50 mM HEPES supplemented with 1 mM CaCl_2, 5 mM MgCl_2 and 0.5% BSA. […] The final reaction volume was 200 μls. Total binding was carried out in the absence of unlabeled chemokines, and non-specific binding was determined by incubating cells with radiolabeled chemokine in the presence of 250 nM of cold chemokine. At the end of incubation, cells were washed 3 times in binding buffer plus 0.5 M NaCl. The cell pellets were transferred into LP3 tubes and counted in a gamma counter.
RANTES and MIP-1a were not able to compete with eotaxin under the conditions used. […] The observed dissociation constant is analogous to other chemokine-receptor dissociation constants.

[2] = target: T1, synthetic human eotaxin (predicted …); experiment: radiolabeled eotaxin on 5×10^5 transfected L1-2 cells, with or without 125 nM unlabeled eotaxin
Protocol: Figure 11: FIG. 11 is a bar graph illustrating the binding of human eotaxin to CKR-3 transfected L1-2 cells. Radiolabeled eotaxin was incubated with 5 ×10^5 transfected cells or untransfected L1-2 cells.

Kd [1]: 4.7 nM
B1: receptor for eotaxin on purified human eosinophils (single class of high affinity binding sites) (receptor)
chain: MTTSLDTVETFGTTSYYDDVGLLCEKADTRALMAQFVPPLYSLVFTFGLLGNVVVVMILIKYRRLRIMTNIYLLNLAISDLLFLVTLPFWIHYVRGHNWVFGHGMCKLLSGFYHTGLYSEIFFIILLTIDRYLAIVHAVFALRARTVTFGVITSIVTWGLAVLAALPEFIFYETEELFEETLCSALYPEDTVYSWRHFHTLRMTIFCLVLPLLVMAICYTGIIKTLLRCPSKKKYKAIRLIFVIMAVFFIFWTPYNVAILLSSYQSILFGNDCERTKHLDLVMLVTEVIAYSHCCMNPVIYAFVGERFRKYLRHFFHRHLLMHLGRYIPFLPSEKLERTSSVSPSTAEPELSIVF

binding result [2]: binds
B2: FLAG-tagged human C-C chemokine receptor 3 (CKR-3) expressed on transfected mouse L1-2 pre-B lymphoma cells (receptor)
chain: MDYKDDDDKEFTTSLDTVETFGTTSYYDDVGLLCEKADTRALMAQFVPPLYSLVFTFGLLGNVVVVMILIKYRRLRIMTNIYLLNLAISDLLFLVTLPFWIHYVRGHNWVFGHGMCKLLSGFYHTGLYSEIFFIILLTIDRYLAIVHAVFALRARTVTFGVITSIVTWGLAVLAALPEFIFYETEELFEETLCSALYPEDTVYSWRHFHTLRMTIFCLVLPLLVMAICYTGIIKTLLRCPSKKKYKAIRLIFVIMAVFFIFWTPYNVAILLSSYQSILFGNDCERTKHLDLVMLVTEVIAYSHCCMNPVIYAFVGERFRKYLRHFFHRHLLMHLGRYIPFLPSEKLERTSSVSPSTAEPELSIVF
notes: also called C-C CKR-3; CC-CKR-3
